Measurements from publication PMC10784492, “De novo biosynthesis of antiarrhythmic alkaloid ajmaline” (Nature Communications, 2024).

B1: tDHVR (RsRR4, N-terminal truncated; tRR4) (Rauvolfia serpentina) (protein)
chain: MAGKSPEEQHPVKAYGWAATDSSGILSPFKFSRRATGDHDVRVKILYAGVCHSDLQSARNDMGCFTYPLVPGFETVGTATEVGSKVTKVKVGDKVAVGIMVGSCGKCDECVNDRECYCPEVITSYGRIDHDGTPTYGGFSSETVANEKFVFCFPEKLPMAAGAPLLNAGVSVYSAMRFYGLDKPGMHLGVVGLGGLGHLAVKFAKAFGVKVTVISTSTSKKGEAINDLGADAFLVSTDAEQMQAGSGTLDGILDTVPVVHPIEALLGLLKNHTKLVLVGATMGSFELPILPLGVGRKSVVSTIGGSTKETQEMLDFAAEHDITASVEIIPMDYVNTAMERIEKGDVRYRFVIDIGNTLTPPES
notes: N-terminally truncated 363-residue version of the 413-residue full protein (extra N-terminal 50 removed); his-tagged in pET30b(+), E. coli, Ni-NTA; OQ591882 is printed for both DHVR and RsAAE1

How the values were obtained:
RsNNMT = target: T1, RsNNMT (Rauvolfia serpentina, UniProt A0A075D6M1); assay: LC-MS/MS detection of ajmaline in coupled reaction; format: biochemical; conditions: 100 μM SAM, 20 mM Tris-HCl pH 7.5, 30 °C; norajmaline formed in situ by RsAAE1/2
T1 construct: gene NNMT; N-terminal His tag, purified from E. coli
T1 sequence (A0A075D6M1 whole entry): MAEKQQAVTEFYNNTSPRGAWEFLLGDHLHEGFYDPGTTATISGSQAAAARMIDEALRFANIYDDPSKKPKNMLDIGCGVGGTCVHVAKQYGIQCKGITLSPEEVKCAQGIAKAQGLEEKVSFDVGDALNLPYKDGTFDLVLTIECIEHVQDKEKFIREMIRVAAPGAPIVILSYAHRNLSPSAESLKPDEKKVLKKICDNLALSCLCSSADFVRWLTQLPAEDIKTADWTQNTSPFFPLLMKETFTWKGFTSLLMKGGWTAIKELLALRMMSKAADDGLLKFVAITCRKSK

[1] = substrate: C/C=C1/[C@@H](O)N2[C@H]3C[C@@]45c6ccccc6N[C@H]4[C@@H]2C[C@@H]1C3[C@H]5OC(C)=O; assay: LC-MS/MS product quantification, Michaelis-Menten fit; format: biochemical, Rauvolfia serpentina; conditions: 1 mM NADPH, 20 mM Tris-HCl pH 7.5, 30 °C, 2 min, 19,20-reduction
Description: LC-MS/MS product quantification, Michaelis-Menten fit on tDHVR (RsRR4, N-terminal truncated; tRR4)

| Molecule | LC-MS/MS detection of ajmaline in coupled reaction (RsNNMT) | Km [1] [µM] | kcat [1] [s⁻¹] |
| --- | --- | --- | --- |
| CC[C@H]1[C@@H]2C[C@H]3[C@@H]4Nc5ccccc5[C@]45C[C@@H]([C@H]2[C@H]5O)N3[C@@H]1O [norajmaline] | ajmaline, also confirmed with an authentic standard, was produced at the expense of norajmaline |  |  |
| B1 |  | 32.0 | 10.4 |
